Earlier results in publication PMC9489792.

Key:
Asp85 = Asp85 (UniProt position 98, WARYADWLFTT); conditions: not stated (presumably the dark/ground state with protonated Schiff base)
Glu85 = Glu85 (UniProt position 98, WARYAEWLFTT); conditions: not stated (presumably the dark/ground state with protonated Schiff base)

| Substance | pKa (Asp85) | pKa (Glu85) |
| --- | --- | --- |
| Bacteriorhodopsin (BR) (Halobacterium salinarum (organism inferred; the article only says BR / bacteriorhodopsin)) | 3.6 |  |
| Bacteriorhodopsin D85E mutant (BR-D85E) (Halobacterium salinarum (organism inferred; the article only says BR / bacteriorhodopsin); D85E) |  | 6.5 |
